B1: CR6301 (antibody, V domains shown)
VH: EVQLVESGGGLVQPGGSLRLSCAASGFTFSIYAMSWVRQAPGKGLEWVSAISSSGDSTYYADSVKGRFTISRDNARNTLYLQMNSLRAEDTAVYYCARAYGYTFDPWGQGTLVTVSS
VL: not shown
notes: human IgG1
B2: CR6141 (antibody, V domains shown)
VH: EVQLVQSGAEVKKPGASVKVSCKASGYTFTGYYVYWVRQAPGQGLEWMGWISAYNGNTNYAQKFQGRVTITADKSTSTAYMELSSLRSEDTAVYYCARSRSLDVWGQGTTVTVSS
VL: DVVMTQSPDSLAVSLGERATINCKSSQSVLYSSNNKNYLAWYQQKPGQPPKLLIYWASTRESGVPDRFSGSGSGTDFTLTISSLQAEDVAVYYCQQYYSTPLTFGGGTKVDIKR
notes: human IgG1
B3: CR6307 (antibody, V domains shown)
VH: QVQLVQSGGGLVKPGGSLRLSCAASGFTFSSYSMNWVRQAPGKGLEWVSSISSSSSYIYYVDSVKGRFTISRDNAKNSLYLQMNSLRAEDTAVYYCARGGGSYGAYEGFDYWGQGTLVTVSS
VL: EIVLTQSPGTLSLSPGERATLSCRASQRVSSYLAWYQQKPGQAPRLLIYGASTRAAGIPDRFSGSGSGTDFTLTISRLEPEDSAVYYCQQYGRTPLTFGGGTKVEIKR
notes: human IgG1
B4: CR6323 (antibody, V domains shown)
VH: EVQLVESGAEVKKPGSSVKVSCKASGGTFSSYGISWVRQAPGQGLEWMGDIIGMFGSTNYAQNFQGRLTITADESTSTAYMELSSLRSEDTAVYYCARSSGYYPAYLPHWGQGTLVTVSS
VL: not shown
notes: human IgG1
B5: CR6296 (antibody, V domains shown)
VH: EVQLVETGAEVKKPGASVKVSCKASGYTFTSYYMHWVRQAPGQGLEWMGWINPNSGGTNYAQKFQGRVTMTRDTSISTAYMELSRLRSDDTAVYYCAREGKWGPQAAFDIWGQGTMVTVSS
VL: EIVMTQSPGTLSLSPGERATLSCRASQSVSSSYLAWYQQKPGQAPRLLIYDASSRATDIPDRFSGSGSGTDFTLTISRLEPEDFAVYYCQQYGSSLWTFGQGTKVEIKR
notes: human IgG1

Tests used:
[1] = target: T1, soluble recombinant HA (sHA) of H5N1TV (influenza A virus A/Vietnam/1194/2004 …, UniProt Q6J8F6 17-528); assay: immunoblot (data not shown)
[2] = target: T1, soluble recombinant HA (sHA) of H5N1TV; assay: immunoblot, reducing SDS-PAGE

| Binder | binding result [1] | binding result [2] |
| --- | --- | --- |
| B1 | binds | – |
| B2 | binds | – |
| B3 | – | binds |
| B4 | – | binds |
| B5 | binds | – |
